From patent US20240352121A1, “LAIR-1 AGONISTIC ANTIBODIES AND METHODS OF USE THEREOF” (NEXTCURE, INC., priority 2023, published 2024)

How the values were obtained:
[1] = system: healthy human primary immune cells; assay: Effect on healthy human immune cells in mice reconstituted with human CD34 cells; type: in vivo, NSG-SGM3 mice
Description: NSG-SGM3 mice were purchased from Jackson Laboratory. Mice were engrafted with CD34+ cord blood cells donor #2523. Mice treated weekly beginning 18 weeks after engraftment with anti-human LAIR-1 mAb clone 11B3 in human G1 or G4P format, or control at 100 μg/mouse (5 mg/kg) for 4 weeks. Bleed at weeks 2 (1 day prior to 2nd dose) and 4 (one day prior to 4th dose) for circulating immune cells. Mice were sacrificed 1 week after final dose for analysis of spleen, LN and bone marrow. FIGS. 35A-35B show total body weight and survival of NSG-SGM3 mice reconstituted with human CD34+ cord blood cells and treated 11B3 antibodies. FIGS. 35C-35G show time-course follow-up of the changes in the immune cell numbers in the blood collected from NSG-SGM3 reconstituted with human CD34+ cord blood cells. FIGS. 35H-35I show Analysis of immune cell numbers in the spleen and bone marrow collected from NSG-SGM3 reconstituted with human CD34+ cord blood cells.
For assessment of mAb impacts on normal human immune cells, NSG-SGM3-CD34^+ fully engrafted humanized mice (>25% human CD45+ leukocytes in circulation) were purchased from Jackson Laboratory (stock #2523, Bar Harbor, ME). […] Absolute numbers of cell subpopulations were calculated, as well as percentages of each population subset as a percentage of total CD45^+ cells and total leukocyte gate.

human LAIR-1 = assay: UT-140 LAIR-1 reporter cell activation (agonism); type: cell-based; settings: upon engagement and crosslinking
Chain of human LAIR-1 (as listed by the source): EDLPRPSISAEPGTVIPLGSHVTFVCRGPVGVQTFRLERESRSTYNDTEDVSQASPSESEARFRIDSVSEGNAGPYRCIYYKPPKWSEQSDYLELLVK
Description: For cell binding assays, 5e4 UT-140 cells or mouse LAIR-1-transfected 293T cells per well were plated in 200 μL PBS in a 96-well round bottom plate, centrifuged for 4 minutes at 500×g for a single wash, and blocked for 10 minutes on ice with flow cytometry buffer (PBS+2% FBS+0.1 mM EDTA) containing 1:50 dilution of TruStain™ Fc block (Biolegend, San Diego, CA). Cells were subsequently stained for 30 min on ice with titrated concentrations of soluble AF647-labeled LAIR-1 mAb or AF647-labeled isotype control. Cells were then washed 3 times as previously described and binding was measured by flow cytometry using an Attune NXT flow cytometer. For reporter cell assays, flat-bottom 96-well TC plates were coated with 10 μg/mL per well of the indicated antibody in PBS or 2 μg/mL of ligand in 0.01N HCl overnight at 4° C. Wells were washed once with 200 μL sterile PBS. 5e4-to-1e5 cells per well were plated in 100 μL RPMIc containing titrated concentrations of LAIR-1 mAb or isotype control, then incubated overnight at 37° C. The next day, cells were transferred to a 96-well round-bottom plate, centrifuged for 4 minutes at 500×g, and resuspended in 200 μL of flow cytometry buffer. Cells were then centrifuged and resuspended for a total of 3 washes. GFP expression was measured by flow cytometry using an Attune NXT Flow Cytometer.

[2] = system: AML patient bone-marrow cells (LSCs); assay: Colony forming unit assay, AML patient bone-marrow; type: cell-based, human; settings: titrated concentrations, dose-response; vs isotype or vehicle
Description: Cryopreserved AML bone-marrow cells or healthy donor CD34 cells were thawed and plated in 96 wells plates. Cells were engaged with the indicated concentrations of LAIR-1 mAb or isotype control for 30 min at room temperature. Subsequently, cells were diluted in IMDM with 2% FBS and mixed with semisolid methylcellulose-based medium (MethoCult H4435 Enriched, StemCell Technologies, Vancouver, Canada) which contains human cytokines (stem cell factor, IL-3, IL-6, EPO, G-CSF, GM-CSF). Then, between 1e4 and 2.5e5 LSCs, or, between 1e3 and 5e3 healthy donor CD34 cells per well were plated on 6-well SmartDishes (StemCell Technologies, Vancouver, Canada). The cell-loaded plates were incubated at 37° C. with 5% CO2 in air and ≥95% humidity. On day 14, colony formation was counted by STEMvision (StemCell Technologies, Vancouver, Canada), an automated and standardized colony counting instrument. The automated results were confirmed and edited manually by the STEMvision Colony Marker software.

[3] = system: AML patient LSCs engrafted in mice; assay: AML patient-derived xenograft (PDX) model; type: in vivo, NSG-SGM3 mice; settings: 5 mg/kg i.p. weekly, 4 doses; at any time point
Description: Newborn (3-5 day from birth) NSG-SGM3 pups were sub-lethally (200 cGy) irradiated. 12 hours post-irradiation, mice were intra-hepatically transplanted with 0.2e6 AML bone-marrow cells or normal CD34 HSCs from cryopreserved stocks. 6 weeks post-transplant, blood was collected to assess engraftment of progenitor cells via flow cytometry, staining for human CD45, human CD33, and human CD3. Once engraftment of human cells was confirmed, 5 mg/kg of anti-human LAIR-1 mAb or isotype control was intraperitoneally injected weekly for a total of 4 doses. At the indicated timepoints post-treatment, blood was collected to assess the proliferation of AML cells as a measure of LAIR-1 mAb anti-leukemic activity as compared to isotype control. For standard-of-care combination studies, PDX mice were treated with 20 mg/kg venetoclax 5 days on and 2 days off for 5 weeks, and X 1.5 mg/kf-tiw azacytidine upfront one week only. LAIR-1 mAb was treated i.p. once per week for 5 weeks. Blood was harvested as described above to measure leukemic growth and spleens were harvested at endpoint and weighed for assessment of splenomegaly. For secondary transplant studies, mice were engrafted as above. […] Leukemia progression in recipient mice was measured by flow cytometry by quantifying the percent of human CD33^+ human CD45^+ cells in peripheral blood at weeks 4, 6, and 10 weeks post-transplant.

B1: LAIR-1 mAb: humanized agonist anti-LAIR-1 mAb, IgG1 backbone; h11B3 VL-2 (SEQ ID NO: 16), h11B3 VH-3 (SEQ ID NO: 27) (antibody, V domains shown)
VH: EVQLVESGGGLVQPGGSLKLSCAASGFTFNTNAMYWVRQAPGKGLEWVGRIRSKSSNYATYYAASVKGRFTISRDDSKNTLYLQMNSLKTEDTAVYYCVRGGSGFFAYWGQGTLVTVSS
VL: DIQMTQSPSSLSASLGDRVTITCKASEDIYIRLAWYQQKPGKAPRLLISTATSLETGVPSRFSGSGSGTDYTFTISSLQPEDIATYYCQQYWSTPYTFGGGTRLEIK
modifications: IgG1 constant regions; Synthetic: h11B3 VH-3; Synthetic: h11B3 VL-2
With B1 the “depletion, inhibition, or expansion of healthy human primary immune cells” value ([1]; 100 μg/mouse (5 mg/kg) weekly for 4 weeks) was “no depletion, inhibition, or expansion”, the “effects on healthy immune cells in the spleen or the bone-marrow” value ([1]; NSG mice reconstituted with healthy human CD34 stem cells) was “minimal effects” and the “human LAIR-1 signaling (agonist)” value (human LAIR-1) was “capable of inducing human LAIR-1 signaling”. The CFU formation [2] was “significantly decreased” and the “human CD45 CD33 cells in circulation” value [3] was < 10%.
